Experimental data taken from the nanobody polyreactivity screen of Harvey et al. (2022).

Assay: yeast display, Sf9 membrane polyspecificity reagent, FACS + sequencing; frameworks hold sequencing errors
How it was run: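 Polyreactivity labels are assigned by the sorting gate from which each nanobody was recovered. The gates were low and high (top ~1%), set on anti-HA fluorescence for expression and streptavidin fluorescence for reagent binding. Before sorting, galactose-induced (36–48 hours) yeast display cells were stained for 1 hour at 4 °C with 10% biotinylated, detergent-solubilized Sf9 membrane reagent.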

Sequence	polyreactivity (PSR sort gate)
QVQLVESGGGLVQAGGSLRLSCAASGSTFSYYAMGWYRQAPWKERELVAASTAGGGSTYYADSVKGRFTISRDNAKNTVYLHMNSLKPEDTAVYYCNADQIFGPALNLWKLDYWGQGTQVTVSS	low polyreactivity
QVQLVESGGGLVQAGGSLRLSCAASGSTFTANAMGWSRQAPGKERELVAAISRSGGSTYYADSVKWRFTISRDNAKNTVYLQMNSLKPEDTAVYYCAAESPLFSPPDGEDYWGQGTQVTVSS	low polyreactivity
QVQLVESGGGLVQAGGSLRLSCAASGSTFTDYAMGWYRQAPGKERELVAAIRFSGGSTYYADSVKGRFTISRDNAKTTVYLQMNSLKPEDTAVYYCAAAGYPWLDSWGQGTQVTVSS	low polyreactivity
QVQLVESGGGLVQAGGSLRLSCAASGSTFTENAMGWYRQAPGKERELVATISTSDGSTHYADSVKGRFTISRDNAKNTVYLQMNSLKPEDTAVYYCAARPDYFLWHGYYTRRHYYWGQGTQVTVSS	low polyreactivity
QVQLVESGGGLVQAGGSLRLSCAASGSTFTEYAMGWYRQAPGKERELVAAITRSGGGTYYADSVKGRFTISRDNAKNTVYLQINSLKPEDTAVYYCAKDWYRRYIRDYWGQGTQVTVSS	high polyreactivity
QVQLVESGGGLVQAGGSLRLSCAASGSTFTFYAMGWYRQAPGKERELVATISSSGGSTYYADSVKGRFTFSRDNAKKTVYLQMNSLKPEDTAVYYCAADPSIVDGEYGYWGQGTQVTVSS	low polyreactivity
QVQLVESGGGLVQAGGSLRLSCAASGSTFTGNAMGWYRQAPGKEREFVAAITYSGTRTNYADSVKGRFTISRDNAKNTVYLQMNSLKPEDTAVYYCAARFPWRRRYYYWGQGTQVTVSS	high polyreactivity
QVQLVESGGGLVQAGGSLRLSCAASGSTFTGNSMGWYRQAPGKERELVAAISRSGGSTFYADSVKGRFTISRDNAKNTVSLQMNSLKPEDTAVYYCATRYVVDMDYWGQGTQVTVSS	high polyreactivity
QVQLVESGGGLVQAGGSLRLSCAASGSTFTGYAMGWYRQAPGKERELVAAITRGGSTYYADSVKGRFTISRDNAKNTVFLQMNSLKPEDTAVYYCAAKPTSREPTGPRYYYWGQGTQVTVSS	high polyreactivity
QVQLVESGGGLVQAGGSLRLSCAASGSTFTHNGMGWYRQAPGKETELVASITWSGGSTYYAVSVKGRFTISRDNAKNTVYLQMNSLKPEDNAVYYCASDAKLYITGFDYWGQGTQVTVSS	low polyreactivity
QVQLVESGGGLVQAGGSLRLSCAASGSTFTHYALGWYRQAPGKEMELVAAITRRGGSTYYADSVKGRFTISRDYAKNTVYLQMNRLKPEDTAVYYCAARSRYDQEYDYWGQATQVTVSS	high polyreactivity
QVQLVESGGGLVQAGGSLRLSCAASGSTFTHYAMGWYRQAPGKERELVAAISSGGSTYYADSVKGRFTISRDNAKNTVYLQMNILKPEDTAVYYCASDYYWHDWWYPHDYWGQGTQVTLSS	low polyreactivity
QVQLVESGGGLVQAGGSLRLSCAASGSTFTHYAMGWYRQAPGKERELVAAISWGGGTTRYADSVKGRFTISRDNAKNTVYLQMNSLKPEDTAVYYCAKRVRTGSVGNFNYWGQGTQVTVSS	high polyreactivity
QVQLVESGGGLVQAGGSLRLSCAASGSTFTINFMGWYRQAPGKERELVAAINGGGRTNYADSVKGRFTISRDNAKNTVYLQMNSLNPEDTAVYYCAAEWRRYEYSDSWEYDYWGQGTQVTVSS	low polyreactivity
QVQLVESGGGLVQAGGSLRLSCAASGSTFTINVMGWYRQAPGKERELVAAINCGGRTNYADSVKGRFTISRDNAKNTVYLQMNSLKPEDTAVYNCAADGRSNVRQMDYWGQGTQVTVSS	low polyreactivity
QVQLVESGGGLVQAGGSLRLSCAASGSTFTKNAMGWYRQAPGKERELVADISFSGGSTYYADSVKGRFTISRDNAKNTVYLQTNRLKPEDTAVYDCAADRHRALPRFDDWGQGTQVTVAS	low polyreactivity
QVQLVESGGGLVQAGGSLRLSCAASGSTFTLNTMGWYRQAPGKERELVAGIRSGGSTYYADSVKGRFTISRDNAKNTVYLQMHSLKPEDTAVYYCAADRRWFAYWFDYWGQGTQVTVSS	low polyreactivity
QVQLVESGGGLVQAGGSLRLSCAASGSTFTLYAMGWYRQAPGKERELVAAISGIGDSTYYADSVKGRFTISRDNAKNTVYFQMNSLKPEDTAVYYCAADGEYRYVWEYESWGQGTQVTVSS	low polyreactivity
QVQLVESGGGLVQAGGSLRLSCAASGSTFTNYALGWYRQAPGKEREFVAAITFRGGRTYYADSVKGRFTISRDNAKNTVYLQMNSLKPEDTAVYYCNKRTSPKRFDYWGQGTQVTVSS	high polyreactivity
QVQLVESGGGLVQAGGSLRLSCAASGSTFTNYAMGWYRQAPGKERELVAAITSGGSTYYADSVKGRFTISRDNAKNTVYLQMNSLKPEDTAVYYCNAVYFSEYDSWGQGTQVTVSS	low polyreactivity
QVQLVESGGGLVQAGGSLRLSCAASGSTFTPNVMGWNRQAPGKEREYVAAINSSGGSTFYADSVKGRFTISRDTAKYTVYLQMNSLKPEDTAFYYCAASWHTPTFYDEYYYWGQGTQVTVSS	low polyreactivity

Sequence	polyreactivity (PSR sort gate)
QVQLVESGGGLVQAGGSLRLSCAASGSTFTPYAMGWYRQAPGKDREFVAVITRSGTRTYYADSVKGRFTISRDNAKNTVYLQMNSLKPEDTAVSYCAADRHPYNRYDYYYWGQGTQVTVSS	high polyreactivity
QVQLVESGGGLVQAGGSLRLSCAASGSTFTQNTMGWYRQAPGKERELVAAISWSGTRTYYADSVKGRFTISRDNAKNTVYLQMNSLKPEDTAVYYCAARTHVPAEYDYWGQGTQVTVSS	high polyreactivity
QVQLVESGGGLVQAGGSLRLSCAASGSTFTQYAMGWYRQAPAKERELFAAISWGGGTTRYADSVKGRFTISRDNAKNTVYLQMNSLKPEDTAVYYCAKRVRTGSVGNFNYWGQGTQVTVSS	high polyreactivity
QVQLVESGGGLVQAGGSLRLSCAASGSTFTRNAMGWYRQAPGKERELVAAISGGGGGSTYYADSVKGRFTISRDNAKNTVYLQMNSLKPEDTAVYYCAARAGRYWAAYGYWGQGTQVTVSS	high polyreactivity
QVQLVESGGGLVQAGGSLRLSCAASGSTFTRYAMGWYRQAPGKERELVAAINWSGTSTYYADSVKGRFTISRDNAKNTVYLQMNSLKPEDTAVYYCNKGYLVRPGDYWGQGTQVTVSS	high polyreactivity
QVQLVESGGGLVQAGGSLRLSCAASGSTFTSYAMGWYRQAPGKERELVAAISKSGGSTYYADSVKGRFTISRDNAKKTVYFQMNSLKPEDTAVYYCAARYNVRSFSTSSFDYWGQGTQVTVSS	low polyreactivity
QVQLVESGGGLVQAGGSLRLSCAASGSTFTSYAMGWYRQAPGKERELVAAITRNGGTTYYADSVKGRFTISRDNAKNTVYLQMNSLKPEDTAVYYCNAPHYYYITSDRRFDYWGQGTQVTVSS	low polyreactivity
QVQLVESGGGLVQAGGSLRLSCAASGSTFTSYVMGWYRQAPGKERELVAAISSSGTRTYYADSVKGRFTISRDNAKNTVYLQMNSLKPEDTSVYYCAARGGAPYRIFKDDYWGQATQVTVSS	high polyreactivity
QVQLVESGGGLVQAGGSLRLSCAASGSTFTTYAMGWYRQAPGKERELVAAISIRGGRTYYADSVKGRFTISRDNAKNTVYLQMNSLKPEDTAVYYCAAETYYAVSTGYDFDYWGQGTQVTVSS	high polyreactivity
QVQLVESGGGLVQAGGSLRLSCAASGSTFTTYAMGWYRQAPGKERELVAAISKSGGSTYYADSVKGRFTISRDNAKNTVYLQMNSLKPEDTAVYYCATSFRSTARKYGYWGQGTQVTVSS	high polyreactivity
QVQLVESGGGLVQAGGSLRLSCAASGSTFTTYAMGWYRQAPGKERELVAAITSGGTTNYADSVKGRFTISRDNAKNTVYLQMNSLKPEDTAVYYCAARNNVEYLTIYKPYSFGSDSWGQGTQVTVSS	low polyreactivity
QVQLVESGGGLVQAGGSLRLSCAASGSTFTWNAMGWYRQAPGKERELGASISGRGGSTYYADSVKGRFTISRDNAKNTVYLQMNSLKPEDTAVYYCAARGVSYHYPSGYDYWGQGTQVTVSS	high polyreactivity
QVQLVESGGGLVQAGGSLRLSCAASGSTFTWYAMGWYRQAPGKERELVAAISGSGGRTFYADSVKGRFTISRDNAKNTVYLQMNSLKPEDTAVYYCNAVRVSIPYIYTMDYWGQGTQVTVSS	high polyreactivity
QVQLVESGGGLVQAGGSLRLSCAASGSTFTYNAMGWYRQAPGTERELVAAISDGDGRTYYADSVKGRFTISRDNAKNTVYLQMNSLKPEDTAVYYCAAVDYAADYPYRNTEVYYWGQGTQVTVSS	low polyreactivity
QVQLVESGGGLVQAGGSLRLSCAASGSTFTYYAMGWYRQAPGKERELVAAINWDGGRTYYADSVKGRFTISRDNAKNTVYLQMNSLKPEDTAVYYCNAVGRYRSGFDYWGQGTQVTVSS	high polyreactivity
QVQLVESGGGLVQAGGSLRLSCAASGSTFTYYAMGWYRQAPGKERELVAAITGRGGRTYYADSVKGRFTISRDNAKNSVYLQMNSLKREDTAVYYCNTVGLNYGYQYSNGYWGQGSQVTVSS	high polyreactivity
QVQLVESGGGLVQAGGSLRLSCAASGSTFTYYAMGWYRQAPGKERELVAAITSSGSTNYADSVKGRFTISRDNAKNTVYLQMNSLKPEDTAVYYCNAVSKWAIYDYWGQGTQVTVSS	high polyreactivity
QVQLVESGGGLVQAGGSLRLSCAASGSTFTYYAMGWYRQAPGKERELVAAITWSGGSTYYADSVKGRFTISRDNAKNTVYLQMNSLKPEDTAVYYCNVYSIWGTYDYWGQGTQVTVSS	low polyreactivity
QVQLVESGGGLVQAGGSLRLSCAASGSTFTYYAMGWYRQAPGKERELVADIDFSGTSTYYADSVKGRFTISRDNAKNTVYLQMNSLKPEDTAVYYCATDDYNWFDYDYWGQGTQVTVSS	low polyreactivity
QVQLVESGGGLVQAGGSLRLSCAASGSTFTYYTMGWYRQAPGKERELVAAISRTTGSTYYADSVKGRFTISRDNAKNTVYLQMNSLKPEDTAVYYCAADYYTRYQYGYWGQGTQVTVSS	low polyreactivity
